Assay results published in patent US20230167182A1 (BIOSION, published 2023).
Numbering of substitutions follows the chain as printed.

B1: Chimeric 1B5 (antibody, human IgG1, kappa, V domains shown)
VH: QVQLQQPGAELVKPGASVKLSCKASGYTFTSYWMHWVKQRPGQGLEWIGEINPSNGRTNYNENFKSKATLTVDKSSSTAYMQLSSLTSEDSAVYYCARLNTHYVFDYWGQGTTLTVSS
VL: EIVLTQSPTILAASPGEKITFTCSVSSSISSNYLHWYQQKPGFSPKLLIYRTSNLASGVPARFSGSGSGTSYSLTIGTMEAEDVATYYCQQGSGIPFTFGSGTKLEIKR
notes: Mouse variable regions on human IgG1 / human kappa constant regions; also called chimeric antibody 1B5
B2: Chimeric 1H9 (antibody, human IgG1, kappa, V domains shown)
VH: QVQLQQPGAELVKPGASVKLSCKASGYTFTSYWMHWVKLRPGQGLEWIGEINPTNGRTNYYEKFKNRATLTADKSSSTAYMQLSSLTFEDSAVYFCAKFHYSRWYFDVWGTGTTVTVSS
VL: DIVMTQSQKFMSTSVGDRVSITCKASQNVGTAVVWYQQKPGQSPKLLINPASNRYTGVPDRFTGSGSGTDFTLTISNMQSEDLADYFCQQYSSYPLTFGAGTKLELKR
notes: Mouse variable regions on human IgG1 / human kappa constant regions; also called chimeric antibody 1H9
B3: humanized antibody hu1H7-V6 (antibody, human IgG1, kappa, V domains shown)
VH: QVQLVQSGAEVKKPGASVKVSCKASGYTFTNYWMHWVRQAPGQGLEWIGEINPTNGRTNYNENFKSKVTLTVDTSTSTVYMELSSLRSEDTAVYYCARLNTHYVFDSWGQGTLVTVSS
VL: EIVLTQSPGTLSLSPGERATLSCSVSSSISSNYLHWYQQKPGLSPRLLISRTSTLASGIPARFSGSGSGTEYTLTISRMQSEDFAVYYCQQGSGIPFTFGQGTKLEIKR
notes: Human IgG1 / kappa
B4: humanized antibody hu1H7-V7 (antibody, human IgG1, kappa, V domains shown)
VH: B3 VH with T74K, V79A
VL: B3 VL with Y72F, M79L
notes: Human IgG1 / kappa
B5: humanized antibody hu1H7-V3 (antibody, human IgG1, kappa, V domains shown)
VH: B3 VH with L70M
VL: B3 VL
notes: Human IgG1 / kappa
B6: humanized antibody hu1H7-V11 (antibody, human IgG1, kappa, V domains shown)
VH: B3 VH with K67R
VL: B3 VL with Y72F, M79L
notes: Human IgG1 / kappa
B7: humanized antibody hu1H7-V8 (antibody, human IgG1, kappa, V domains shown)
VH: B3 VH with V72R
VL: B3 VL with Y72F, M79L
notes: Human IgG1 / kappa
B8: humanized antibody hu1H7-V2 (antibody, human IgG1, kappa, V domains shown)
VH: B3 VH with V72R
VL: B3 VL
notes: Human IgG1 / kappa
B9: humanized antibody hu1H7-V1-2 (antibody, human IgG1, kappa, V domains shown)
VH: B3 VH with R38K, E46D, V68A, T74K, V79A
VL: B3 VL with S22T, L43F, E71S, T73S
notes: Human IgG1 / kappa; also called hu1H7-Vl-2
B10: humanized antibody hu1H7-V12 (antibody, human IgG1, kappa, V domains shown)
VH: B3 VH
VL: B3 VL with Y72F, M79L
notes: Human IgG1 / kappa
B11: humanized antibody hu1H7-V1 (antibody, human IgG1, kappa, V domains shown)
VH: B3 VH with T74K, V79A
VL: B3 VL
notes: Human IgG1 / kappa; also called hu1H7-Vl
B12: humanized antibody hu1H7-V9 (antibody, human IgG1, kappa, V domains shown)
VH: B3 VH with L70M
VL: B3 VL with Y72F, M79L
notes: Human IgG1 / kappa

Biological target: T1, recombinant human IL6R-his (human, UniProt P08887 20-365)
T1 construct: In house made; the entry includes the C-terminal His tag; also called human IL6R-his protein
T1 sequence: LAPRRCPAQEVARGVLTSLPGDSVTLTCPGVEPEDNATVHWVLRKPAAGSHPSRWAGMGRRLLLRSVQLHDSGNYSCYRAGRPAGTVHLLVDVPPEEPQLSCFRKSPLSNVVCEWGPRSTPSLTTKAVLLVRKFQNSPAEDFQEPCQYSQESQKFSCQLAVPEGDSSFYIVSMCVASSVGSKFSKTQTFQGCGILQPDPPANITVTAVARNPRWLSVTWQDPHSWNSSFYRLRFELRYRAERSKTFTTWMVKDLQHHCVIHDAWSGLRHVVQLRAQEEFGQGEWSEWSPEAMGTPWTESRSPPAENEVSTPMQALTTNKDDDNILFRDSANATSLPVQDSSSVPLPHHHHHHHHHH
Test: SPR Biacore; antibody captured by anti-human IgG on CM5, human IL6R-his at 100 nM
Protocol: (§1) Un-reacted moieties on the biosensor surface were blocked with ethanolamine. […] Then, serially diluted recombinant human IL6R-his (in house made, amino acid sequence set forth in SEQ ID NO: 44) or macaca IL6R-his protein (in house made, amino acid sequence set forth in SEQ ID NO: 45), starting at 100 nM with a 2-fold serial dilution in HBS-EP⁺ buffer (provided by Biacore), was flowed onto the chip at a flow rate of 30 μL/min. The antigen-antibody association kinetics was followed for 2 minutes and the dissociation kinetics was followed for 10 minutes. The association and dissociation curves were fit to a 1:1 Langmuir binding model using BIAcore evaluation software.
The recombinant human IL6R-his (amino acid sequence set forth in SEQ ID NO: 44) at the concentration of 100 nM instead of serially diluted recombinant human IL6R-his, was flowed onto the chip at a flow rate of 30 μL/min.

Which results are given for B1?
Kd: 0.915 nM; koff: 0.000194 s⁻¹; kon: 212000 M⁻¹ s⁻¹

Which results are given for B2?
Kd: 0.915 nM; koff: 0.000194 s⁻¹

Biological target: T2, human IL6R-Fc protein (human, biotin-labeled in the ELISAs (sites not given))
T2 construct: In house made; also called biotin-labeled human IL6R-Fc protein
Test: ligand blocking ELISA: antibody pre-incubated with biotin-labeled human IL6R-Fc, added to plate-coated human IL6 (blocked ligand: human IL6)
Target sequence in this assay (chain, as listed by the source limits assumed): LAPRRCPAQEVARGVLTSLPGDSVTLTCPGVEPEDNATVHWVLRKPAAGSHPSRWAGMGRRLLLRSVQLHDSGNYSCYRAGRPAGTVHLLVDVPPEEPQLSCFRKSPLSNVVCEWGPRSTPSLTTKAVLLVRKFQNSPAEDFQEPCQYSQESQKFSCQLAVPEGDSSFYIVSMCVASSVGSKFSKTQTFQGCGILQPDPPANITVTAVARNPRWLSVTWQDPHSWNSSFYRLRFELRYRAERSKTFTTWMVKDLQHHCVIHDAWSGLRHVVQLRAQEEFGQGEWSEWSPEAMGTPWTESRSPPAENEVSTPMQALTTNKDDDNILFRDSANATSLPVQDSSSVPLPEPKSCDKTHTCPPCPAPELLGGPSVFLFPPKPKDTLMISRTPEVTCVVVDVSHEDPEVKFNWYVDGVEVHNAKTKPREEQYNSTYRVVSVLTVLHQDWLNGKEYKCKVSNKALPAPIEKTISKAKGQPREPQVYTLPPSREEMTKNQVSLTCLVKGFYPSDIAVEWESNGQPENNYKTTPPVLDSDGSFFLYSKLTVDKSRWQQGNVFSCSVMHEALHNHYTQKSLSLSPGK

B1 was tested. Which IC50 did it give?
The IC50 was 0.299 nM.

Biological target: T2, human IL6R-Fc protein
Test: benchmark blocking ELISA: antibody pre-incubated with biotin-labeled human IL6R-Fc, added to plate-coated Tocilizumab (competitor: Tocilizumab)

How did the IC50 turn out when B2 was run?
The IC50 was 0.338 nM.

Biological target: T2, human IL6R-Fc protein
Test: capture ELISA: antibody captured on anti-IgG F(ab')2 coated plate, then biotin-labeled human IL6R-Fc, streptavidin-HRP
Protocol: (§2) For the capture ELISA, 96-well micro plates were coated with 2 μg/ml AffiniPure Goat Anti-Mouse IgG, F(ab′)₂ fragment specific (Jackson ImmunoResearch Laboratories, Inc., Cat #115-005-072) in PBS, 100 μl/well, and incubated for 2 hours at 37° C. Plates were washed once with wash buffer (PBS+0.05% v/v Tween-20, PBST) and then blocked with 200 μl/well blocking buffer (5% w/v non-fatty milk in PBST) overnight at 4° C. […] Plates containing captured anti-IL6R antibodies were incubated with biotin-labeled human IL6R-Fc protein (prepared in house, SEQ ID NO: 43, 39.5 ng/ml in 2.5% w/v non-fatty milk in PBST, 100 μl/well) for 40 minutes at 37° C., washed 4 times, and incubated with streptavidin conjugated HRP (1:10000 dilution in PBST, Jackson ImmunoResearch Laboratories, Inc., Cat #016-030-084, 100 μl/well) for 40 minutes at 37° C. After a final wash, plates were incubated with 100 μl/well ELISA substrate TMB (InnoReagents, Cat #TMB-S-002). The reaction was stopped 3-10 minutes later at room temperature with 50 μl/well 1M H₂SO₄, and the absorbance of each well was read on a microplate reader using dual wavelength mode at 450 nm for TMB and 630 nm as the reference wavelength. Then the OD (450-630) values were plotted against antibody concentration. Data was analyzed using Graphpad Prism software and EC₅₀ values were reported.
(§3) For the capture ELISA, AffiniPure Goat Anti-Human IgG, F(ab′)₂ fragment specific (Jackson Immuno Research, Cat #109-005-097) was used instead of AffiniPure Goat Anti-Mouse IgG, F(ab′)₂ fragment specific, 100 μl/well.
Target sequence in this assay (chain, as listed by the source limits assumed): as above

How did the EC50 turn out when B1 was run?
The EC50 was 0.101 nM.

Biological target: T2, human IL6R-Fc protein
Test: ligand blocking ELISA: antibody pre-incubated with biotin-labeled human IL6R-Fc, added to plate-coated human IL6 (blocked ligand: human IL6)
Remark: another data set of the same source

Which IC50 does the source give for B2 here?
Its IC50 is 0.213 nM.

Biological target: T2, human IL6R-Fc protein
Test: capture ELISA: antibody captured on anti-IgG F(ab')2 coated plate, then biotin-labeled human IL6R-Fc, streptavidin-HRP
Remark: another data set of the same source
Protocol: as §2, §3

With B2 as the binder, how does the EC50 read?
Its EC50 is 0.0897 nM.

Biological target: T1, recombinant human IL6R-his
Test: SPR Biacore; antibody from diluted cell supernatant captured by anti-human IgG on CM5, human IL6R in flow
Protocol: as §1
Cell supernatants containing humanized antibodies were harvested after six days in shaking flasks and directly subjected to BIAcore test following the protocol described above with modifications.

What does the source list for B3?
Kd: 0.584 nM; koff: 0.000195 s⁻¹; kon: 334000 M⁻¹ s⁻¹

B4 was tested. Which Kd did it give?
The Kd was 0.855 nM.

What about the koff of the same binder?
Its koff is 0.000199 s⁻¹.

And the kon?
Its kon is 233000 M⁻¹ s⁻¹.

B5 was tested. Which Kd did it give?
The Kd was 0.568 nM.

And the koff?
The koff was 0.000176 s⁻¹.

And the kon?
The kon was 311000 M⁻¹ s⁻¹.

With B6 as the binder, how does the Kd read?
The Kd was 0.849 nM.

What about the koff of the same binder?
Its koff is 0.000202 s⁻¹.

What about the kon of the same binder?
Its kon is 238000 M⁻¹ s⁻¹.

With B7 as the binder, how does the Kd read?
Its Kd is 0.91 nM.

And the koff?
Its koff is 0.000199 s⁻¹.

What about the kon of the same binder?
Its kon is 218000 M⁻¹ s⁻¹.

For B8, which Kd is on record?
Its Kd is 0.733 nM.

What about the koff of the same binder?
Its koff is 0.000197 s⁻¹.

And the kon?
The kon was 269000 M⁻¹ s⁻¹.

Which results are given for B9?
Kd: 0.63 nM; koff: 0.000165 s⁻¹; kon: 262000 M⁻¹ s⁻¹

How did the Kd turn out when B10 was run?
Its Kd is 0.744 nM.

And the koff?
Its koff is 0.000207 s⁻¹.

What about the kon of the same binder?
The kon was 279000 M⁻¹ s⁻¹.

What does the source list for B11?
Kd: 0.669 nM; koff: 0.000173 s⁻¹; kon: 258000 M⁻¹ s⁻¹

What does the source list for B12?
Kd: 1.05 nM; koff: 0.000222 s⁻¹; kon: 212000 M⁻¹ s⁻¹

Biological target: T2, human IL6R-Fc protein
Test: benchmark blocking ELISA: antibody pre-incubated with biotin-labeled human IL6R-Fc, added to plate-coated Tocilizumab (competitor: Tocilizumab)
Remark: another data set of the same source
Target sequence in this assay (chain, as listed by the source limits assumed): as above

How did the IC50 turn out when B1 was run?
The IC50 was 0.317 nM.
